Experimental data: patent US20250011380A1

Assays:
Assay in all cases: cell-based or functional assay
IL-21R on B9 cells = target: IL-21R on B9 cells
[1] = target: IL-2Rβ and common γ chain on 32Dβ cells
IL2Rαβγ on CTLL2 cells = target: IL2Rαβγ on CTLL2 cells
IL2Rαβγ on CTLL2 cells, sequence (P01590 22-268, chain 1 of 3): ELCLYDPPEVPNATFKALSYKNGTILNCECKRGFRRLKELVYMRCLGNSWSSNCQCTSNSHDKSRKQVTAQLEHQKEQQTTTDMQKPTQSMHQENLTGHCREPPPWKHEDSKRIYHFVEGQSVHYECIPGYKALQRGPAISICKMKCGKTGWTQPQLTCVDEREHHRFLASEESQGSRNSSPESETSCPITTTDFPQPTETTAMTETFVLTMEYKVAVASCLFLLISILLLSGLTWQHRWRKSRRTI
IL2Rαβγ on CTLL2 cells, sequence (P16297 27-539, chain 2 of 3, further chain): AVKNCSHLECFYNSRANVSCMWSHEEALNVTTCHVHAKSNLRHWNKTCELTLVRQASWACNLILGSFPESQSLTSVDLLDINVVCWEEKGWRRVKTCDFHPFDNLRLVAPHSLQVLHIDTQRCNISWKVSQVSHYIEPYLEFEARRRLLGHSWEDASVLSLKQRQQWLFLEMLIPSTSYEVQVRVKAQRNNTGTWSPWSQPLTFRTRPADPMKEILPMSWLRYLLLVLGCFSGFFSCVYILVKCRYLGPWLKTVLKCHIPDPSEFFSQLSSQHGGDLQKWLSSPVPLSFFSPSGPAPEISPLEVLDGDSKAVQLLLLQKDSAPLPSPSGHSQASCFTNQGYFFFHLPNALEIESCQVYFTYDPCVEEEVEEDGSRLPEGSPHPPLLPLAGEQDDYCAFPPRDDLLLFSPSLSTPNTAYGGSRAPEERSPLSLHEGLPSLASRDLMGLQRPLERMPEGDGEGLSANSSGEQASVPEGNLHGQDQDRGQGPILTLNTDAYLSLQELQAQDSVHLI
IL2Rαβγ on CTLL2 cells, sequence (P34902 23-369, chain 3 of 3, further chain): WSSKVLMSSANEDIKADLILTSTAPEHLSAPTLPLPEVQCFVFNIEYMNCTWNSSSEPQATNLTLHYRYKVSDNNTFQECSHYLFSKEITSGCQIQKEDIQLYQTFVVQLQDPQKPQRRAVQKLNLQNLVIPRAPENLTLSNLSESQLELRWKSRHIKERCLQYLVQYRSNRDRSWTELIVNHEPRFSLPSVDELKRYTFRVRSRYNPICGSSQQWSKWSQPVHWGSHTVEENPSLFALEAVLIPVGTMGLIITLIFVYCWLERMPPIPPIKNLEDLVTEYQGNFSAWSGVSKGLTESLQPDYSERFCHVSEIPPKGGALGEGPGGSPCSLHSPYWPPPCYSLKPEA

| Substance | EC50, B9 cell proliferation (WST1) (IL-21R on B9 cells) [pM] | EC50, 32Dβ cell proliferation (WST1) [1] [pM] | EC50, CTLL-2 cell proliferation (WST1) (IL2Rαβγ on CTLL2 cells) [pM] |
| --- | --- | --- | --- |
| recombinant IL-21 (from UniProt Q9HBE4 32-162) (ligand) | 72600 |  |  |
| recombinant IL-2 (from UniProt P60568 21-153) (ligand) |  | 140 | 548 |
